Consider 1 molecule from patent publication US20230167169A1 (ATRECA, published 2023).

In this experiment the target is T1, (NANP)6 (Plasmodium falciparum, biotinylated for the BLI assay (site not stated)).
T1 construct: Used in both the BLI and SPR assays
T1 peptide: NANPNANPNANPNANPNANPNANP
The experiment can be described thus: BLI; biotinylated target on streptavidin sensor; antibody at 5 µg/mL. A general note: BLI is a label-free optical method that tracks binding on a fibre tip over time.

B1: AB-000224 (antibody, V domains shown)
VH: EVQLVESGGGLVQPGRSLRLPCTASGFSFGDHAMSWVRQAPGKGLEWVGFIRKTTYGATTHYAAAVRGRFTISRDDSKSIVYLQMNSLKTEDTAVYFCTRVQLDYGPGYQYYGMDVWGQGTTVTVSS
VL: ESVLTQPPSVSGAPGQRVTISCTGMNSNIGAGYDVYWYQQLPGRAPKLLIYGNSNRPSGVPDRFSGSRSGTSASLAITGLQAEDEADYYCQSYDTSLNGWAFGGGTKLTVLG
As to B1, the kon came to 275000 M⁻¹ s⁻¹.

One may read the kon as the rate constant with which the complex forms. A low value points to slow association.
